Type in all cases: cell-based, E. coli HB101
The nature of assay [1]: Conversion of 5% or 10% N-acetyl-DL-tryptophan by E. coli transformant cells. To be noted: 25° C. The method, then: Cells of E. coli HB101 strain were transformed with the expression plasmids for the three mutant D-aminoacylases AD-0103, AD-1064, and AD-1927 obtained in Example 8, whose inhibition was impaired. The E. coli cells were inoculated in liquid LB media, and cultured at 30° C. overnight. Then, the transformants were inoculated in 2x YT (2% Bacto tryptone, 1% Bacto-yeast extract, 1.0% sodium chloride, pH 7.2) media and incubated at 30° C. for 18 hours. The E. coli cells were harvested. The bacterial cells were used to hydrolyze N-acetyl-D-tryptophan.
Cells of the respective E. coli transformants prepared from 5 ml of liquid culture media were incubated in 10 ml of reaction solutions which comprised 300 mM Tris-hydrochloride buffer (pH 8.0) containing 5% or 10% N-acetyl-DL-tryptophan at 25° C. while being stirred. An E. coli HB101 strain containing the plasmid pSL-ADD6 with the wild-type D-aminoacylase was used as a control. In assays using 5% N-acetyl-DL-tryptophan as the substrate, the yield was about 50% with the wild type, whereas the yield was about 100% with any one of the four mutants. In assays using 10% N-acetyl-DL-tryptophan as the substrate, the yield was about 15% with the wild type, whereas the yield was about 25% with each of the mutants AD-0103 and AD-1089; the yield was about 40% with the mutant AD-1064, and the yield was about 60% with the mutant AD-1927. […]

Assay [2] in a line: Reaction of third generation mutants with 7% N-acetyl-DL-tryptophan in microtiter plate. The note with it: 25° C., 8 hours. The method, then:
With a conventional method, recombinant plasmid DNAs were purified from total 10 strains of E. coli JM109 transformant obtained in Example 16. Cells of E. coli HB101 strain were transformed with the recombinant plasmid DNAs to prepare transformants. Each colony grown on a culture plate was inoculated with a toothpick to a well of a microtiter plate which contained 150 μl of LB culture medium containing 50 μg/ml ampicillin and 0.02 mM IPTG, and then the microtiter plate was covered with Breathable Sealing Membrane (Nalgene). The microtiter plate was incubated at 37° C. for 18 hours while being shaken. The reaction was carried out using total 200 μl of a reaction solution containing 100 μl of culture medium solution, 300 mM Tris-hydrochloride buffer (pH 8.0), 7% N-acetyl-DL-tryptophan, and distilled water in each well of a microtiter plate at 25° C. for 8 hours while being shaken. When all of the N-acetyl-D-tryptophan contained in substrate is converted to D-tryptophan, the yield is taken as 100%. While the yield was about 70% with the wild type, the yield was roughly 100% with a third generation mutant obtained in […]. Thus, the competitive inhibition was confirmed to be impaired in the third generation mutants.

The nature of assay [3]: Hydrolysis of 15% N-acetyl-DL-tryptophan by E. coli cells. The note with it: 25° C., 24 hours. The method, then:
3AD-0013(M347Q/R374H) and 3AD-0089(A154V/M347A/R374P) are mutants with two amino acid substitutions and with three amino acid substitutions of the third generation mutants obtained in Example 17, respectively. Cells of E. coli HB101 strain transformed with plasmids expressing the two types of mutants were each inoculated to a liquid LB medium, and cultured at 30° C. overnight. Then, the E. coli cells were inoculated to a culture medium (2x YT) and incubated at 30° C. for 18 hours. The cells of E. coli were harvested, and used to hydrolyze N-acetyl-D-tryptophan.
10 ml of a reaction solution containing E. coli cells prepared from 5 mL of culture medium solution, 300 mM Tris-hydrochloride buffer (pH 8.0), and 15% N-acetyl-DL-tryptophan was incubated at 25° C. for 24 hours while being stirred. E. coli HB101 strain containing the wild-type pSL-ADD6 was used as a control. While the yield was about 15% with the wild type, the yields were about 30% and about 80% with the mutant 3AD-0013 having two amino acid substitutions and the mutant 3AD-0089 having three amino acid substitutions, respectively. Thus, the third generation mutants obtained in […] were confirmed to have higher processability in the hydrolysis of higher concentrations of N-acetyl-DL-tryptophan.

A short description of assay [4]: Production of D-tryptophan from high concentrations of N-acetyl-DL-tryptophan using culture medium of recombinant E. coli. The method, then:
Cells of E. coli HB101 strain were transformed with the plasmid pSL-AD10 expressing the mutant D-aminoacylase 3AD-0089 (containing the amino acid substitution of A154V/M347A/R374F) obtained in Example 18. The transformant was inoculated to a liquid LB medium, and cultured at 30° C. overnight. Then, the E. coli was inoculated to a culture medium (2x YT) and incubated at 30° C. for 18 hours. N-acetyl-D-tryptophan was hydrolyzed using the culture medium solution of the E. coli.
400 mL of a reaction solution containing the culture medium solution of the E. coli and 15% N-acetyl-DL-tryptophan was incubated at 30° C. for 24 hours while being stirred. E. coli HB101 strain containing the wild type […] was used as a control. While with the wild type the yield was about 4%, with the recombinant E. coli containing pSL-AD10 the yield was 90% or higher (FIG. 1).
The hydrolysis was carried out in the presence of 20% N-acetyl-DL-tryptophan by the same method as described in Example 26. The yield was 90% or higher with the recombinant E. coli having the plasmid pSL-AD10 that contains the DNA encoding the mutant D-aminoacylase 3AD-0089 (containing the amino acid substitution of A154V/M347A/R374F). The optical purity of tryptophan produced was analyzed by the procedure described below. […] The elution was detected with the optical density at 280 nm. […]

B1: wild-type: D-aminoacylase derived from Alcaligenes denitrificans subsp. xylosoxydans MI-4, SEQ ID NO: 1 (protein)
chain: MSQSDSQPFDLLLAGGTLIDGSNTPGRRADLGVRGDRIAAIGDLSDAAAHTRVDVSGLVVAPGFIDSHTHDDNYLLRRRDMTPKISQGVTTVVTGNCGISLAPLAHANPPAPLDLLDEGGSYRFERFADYLDALRATPAAVNAACMVGHSTLRAAVMPDLQRAATDEEIAAMRDLAEEAMASGAIGISTGAFYPPAARATTEEIIEVCRPLSAHGGIYATHMRDEGEHIVAALEETFRIGRELDVPVVISHHKVMGQPNFGRSRETLPLIEAAMARQDVSLDAYPYVAGSTMLKQDRVLLAGRTIITWCKPFPELSGRDLDEVAAERGKSKYDVVPELQPAGAIYFMMDEPDVQRILAFGPTMIGSDGLPHDERPHPRLWGTFPRVLGHYARDLGLFPLETAVWKMTGLTAARFGLAGRGQLQAGYFADLVVFDPATVADTATFEHPTERAAGIHSVYVNGAPVWQEQAFTGQHAGRVLARTAA
modifications: Alcaligenes denitrificans subsp. xylosoxydans MI-4
For B1, the yield entry in assay [1] (5% N-acetyl-DL-tryptophan) is “about 50%”; in assay [1] (10% N-acetyl-DL-tryptophan), “about 15%”; in assay [2] it was “about 70%”; in assay [3], “about 15%”; in assay [4] (15% N-acetyl-DL-tryptophan, 30° C., 24 hours, culture medium solution), “about 4%”. Besides, the D-tryptophan produced entry in assay [4] (from 150 g/l N-acetyl-DL-tryptophan (75 g/l N-acetyl-D-tryptophan), FIG. 1) is given as “about 2.5 g/l”.

These data come from patent US7282356B2, “D-aminoacylase mutants” (Daicel Chemical Industries, Ltd., priority 2002, dated 2007).
